The target of test [1] is HA of A/Texas/50/2012 (H3N2) (influenza A virus (H3N2)).
Test [2] has as its target HA of A/Solomon Islands/03/2006 (H1N1) (influenza A virus (H1N1)).
Test [3] concerns the target HA of A/Texas/36/1991 (H1N1) (influenza A virus (H1N1)).

Usually EC50 stands for the concentration needed to bring the measured effect to its halfway point.

As to “rFluA-20 light chain mutant N53A (antibody)”, the results for the EC50 in test [1], in test [2] and in test [3] were 0.09 µg/mL, 0.05 µg/mL and 0.04 µg/mL, respectively.

Consider “rFluA-20 heavy chain mutant C101A (antibody)”, for which the EC50 in test [1] was determined as 0.39 µg/mL; in test [2], 0.2 µg/mL; in test [3] it was 0.15 µg/mL.

In test [2], “rFluA-20 light chain mutant Q55A (antibody)” gave an EC50 fold over wild-type rFluA-20 of over 100 fold. The EC50 in test [3] was found to be 0.23 µg/mL.

These data come from patent US20210252150A1.
